Results: article PMC4434323

Legend:
[1] = molecular target: T1, atf-6 (F45E6.2) (Caenorhabditis elegans) (UniProt Q20435)
T1 sequence: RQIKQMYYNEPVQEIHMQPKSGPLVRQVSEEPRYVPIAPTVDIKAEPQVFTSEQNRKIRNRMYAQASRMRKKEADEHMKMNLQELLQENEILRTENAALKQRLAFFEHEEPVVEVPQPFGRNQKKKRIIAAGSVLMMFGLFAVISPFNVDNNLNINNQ

[2] = molecular target: T2, end-1 (F58E10.2) (Caenorhabditis elegans) (UniProt G5EDN4)
T2 sequence: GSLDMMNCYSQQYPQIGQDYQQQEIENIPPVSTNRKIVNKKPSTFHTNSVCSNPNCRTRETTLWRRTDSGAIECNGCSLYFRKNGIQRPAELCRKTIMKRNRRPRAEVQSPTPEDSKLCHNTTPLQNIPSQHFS

[3] = molecular target: T3, end-3 (F58E10.5) (Caenorhabditis elegans) (UniProt Q9XUW7)
T3 sequence: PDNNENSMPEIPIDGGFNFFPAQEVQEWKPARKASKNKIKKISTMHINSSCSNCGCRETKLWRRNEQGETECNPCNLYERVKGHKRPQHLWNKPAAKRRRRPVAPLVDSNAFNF

[4] = molecular target: T4, ceh-34 (C10G8.6) (Caenorhabditis elegans) (UniProt Q94165)
T4 sequence: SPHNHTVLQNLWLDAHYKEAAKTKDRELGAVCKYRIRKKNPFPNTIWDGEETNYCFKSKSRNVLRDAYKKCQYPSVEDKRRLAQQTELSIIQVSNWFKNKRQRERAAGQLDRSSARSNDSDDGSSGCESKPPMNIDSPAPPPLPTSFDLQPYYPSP

[5] = molecular target: T5, med-2 (K04C2.6) (Caenorhabditis elegans) (UniProt G5EF25)
T5 sequence: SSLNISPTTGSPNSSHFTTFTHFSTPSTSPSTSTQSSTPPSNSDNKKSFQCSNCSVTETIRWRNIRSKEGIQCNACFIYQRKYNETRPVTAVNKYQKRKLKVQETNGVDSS

[6] = molecular target: ceh-36 (C37E2.4) (Caenorhabditis elegans) (UniProt Q93352)
Chain of ceh-36 (C37E2.4) (Caenorhabditis elegans) (Q93352 6-165): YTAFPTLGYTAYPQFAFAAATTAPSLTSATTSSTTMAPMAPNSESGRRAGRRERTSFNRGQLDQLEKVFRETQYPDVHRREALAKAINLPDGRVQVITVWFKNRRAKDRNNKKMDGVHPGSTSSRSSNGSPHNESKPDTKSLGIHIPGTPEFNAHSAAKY

[7] = system: ceh-53 (C09G12.1) (Caenorhabditis elegans)
Chain of ceh-53 (C09G12.1) (Caenorhabditis elegans) (chain, as listed by the source): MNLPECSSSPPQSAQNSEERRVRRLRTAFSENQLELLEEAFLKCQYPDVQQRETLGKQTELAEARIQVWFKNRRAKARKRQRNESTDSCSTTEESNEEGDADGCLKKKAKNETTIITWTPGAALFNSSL

[8] = molecular target: T6, C27D6.4 (C27D6.4) (Caenorhabditis elegans) (UniProt Q4JFH9)
T6 sequence: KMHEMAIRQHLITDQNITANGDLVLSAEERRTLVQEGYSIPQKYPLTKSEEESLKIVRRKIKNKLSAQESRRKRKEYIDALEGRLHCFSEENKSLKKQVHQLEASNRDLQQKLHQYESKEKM

[9] = molecular target: atf-7 (C07G2.2) (Caenorhabditis elegans) (UniProt Q86MD3)
Chain of atf-7 (C07G2.2) (Caenorhabditis elegans) (Q86MD3 339-508): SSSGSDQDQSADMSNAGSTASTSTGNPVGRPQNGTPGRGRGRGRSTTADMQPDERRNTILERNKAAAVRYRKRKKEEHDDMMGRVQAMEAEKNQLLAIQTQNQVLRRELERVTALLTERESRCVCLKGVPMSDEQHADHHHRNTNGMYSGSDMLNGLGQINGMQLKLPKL

[10] = molecular target: dmd-4 (C27C12.6) (Caenorhabditis elegans) (UniProt Q18248)
Chain of dmd-4 (C27C12.6) (Caenorhabditis elegans) (Q18248 1-114): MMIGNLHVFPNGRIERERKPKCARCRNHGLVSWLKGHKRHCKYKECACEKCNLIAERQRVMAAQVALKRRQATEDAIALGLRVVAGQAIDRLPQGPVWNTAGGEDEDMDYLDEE

[11] = molecular target: T7, C07E3.6 (C07E3.6) (Caenorhabditis elegans) (UniProt Q17792)
T7 sequence: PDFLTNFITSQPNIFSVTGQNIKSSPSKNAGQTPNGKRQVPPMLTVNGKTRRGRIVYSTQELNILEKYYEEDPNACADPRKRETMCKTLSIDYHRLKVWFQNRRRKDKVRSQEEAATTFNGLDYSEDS

[12] = molecular target: T8, elt-6 (F52C12.5) (Caenorhabditis elegans) (UniProt G5EGN3)
T8 sequence: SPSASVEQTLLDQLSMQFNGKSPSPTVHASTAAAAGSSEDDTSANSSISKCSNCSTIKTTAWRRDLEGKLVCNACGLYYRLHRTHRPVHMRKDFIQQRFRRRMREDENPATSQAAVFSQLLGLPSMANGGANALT

ACCACGTA (double strand) [8-mer ACCACGTA]
binding signal (PBM E-score (-0.5 to 0.5)) [1]: 0.457

CCTTATCG (double strand) [8-mer CCTTATCG]
binding signal (PBM E-score (-0.5 to 0.5)) [2]: 0.486

AGATAAGA (double strand) [8-mer AGATAAGA]
binding signal (PBM E-score (-0.5 to 0.5)) [2]: 0.484 | binding signal (PBM E-score (-0.5 to 0.5)) [3]: 0.496

TATCGATA (double strand) [8-mer TATCGATA]
binding signal (PBM E-score (-0.5 to 0.5)) [2]: 0.49

GGGTATCA (double strand) [8-mer GGGTATCA]
binding signal (PBM E-score (-0.5 to 0.5)) [4]: 0.49

GGTATACC (double strand) [8-mer GGTATACC]
binding signal (PBM E-score (-0.5 to 0.5)) [5]: 0.496

TAATCCTA (double strand) [8-mer TAATCCTA]
binding signal (PBM E-score (-0.5 to 0.5)) [6]: 0.492

CGGATTAG (double strand) [8-mer CGGATTAG]
binding signal (PBM E-score (-0.5 to 0.5)) [7]: 0.496

AGATAAGG (double strand) [8-mer AGATAAGG]
binding signal (PBM E-score (-0.5 to 0.5)) [2]: 0.484 | binding signal (PBM E-score (-0.5 to 0.5)) [3]: 0.496

GGGGGATA (double strand) [8-mer GGGGGATA]
binding signal (PBM E-score (-0.5 to 0.5)) [4]: 0.463

CCACGTCA (double strand) [8-mer CCACGTCA]
binding signal (PBM E-score (-0.5 to 0.5)) [8]: 0.496 | binding signal (PBM E-score (-0.5 to 0.5)) [1]: 0.488 | binding signal (PBM E-score (-0.5 to 0.5)) [9]: 0.496

AGTATACA (double strand) [8-mer AGTATACA]
binding signal (PBM E-score (-0.5 to 0.5)) [5]: 0.498

AAGTATAC (double strand) [8-mer AAGTATAC]
binding signal (PBM E-score (-0.5 to 0.5)) [5]: 0.499

GATATCGA (double strand) [8-mer GATATCGA]
binding signal (PBM E-score (-0.5 to 0.5)) [2]: 0.484

GATAAGAA (double strand) [8-mer GATAAGAA]
binding signal (PBM E-score (-0.5 to 0.5)) [3]: 0.488

AGTATCCA (double strand) [8-mer AGTATCCA]
binding signal (PBM E-score (-0.5 to 0.5)) [5]: 0.495

CCGATAAG (double strand) [8-mer CCGATAAG]
binding signal (PBM E-score (-0.5 to 0.5)) [2]: 0.486

AGTATACC (double strand) [8-mer AGTATACC]
binding signal (PBM E-score (-0.5 to 0.5)) [5]: 0.499

GGGTATAC (double strand) [8-mer GGGTATAC]
binding signal (PBM E-score (-0.5 to 0.5)) [5]: 0.496

AGTATACT (double strand) [8-mer AGTATACT]
binding signal (PBM E-score (-0.5 to 0.5)) [5]: 0.5

ATGATATC (double strand) [8-mer ATGATATC]
binding signal (PBM E-score (-0.5 to 0.5)) [4]: 0.476 | binding signal (PBM E-score (-0.5 to 0.5)) [2]: 0.484

GATACCCC (double strand) [8-mer GATACCCC]
binding signal (PBM E-score (-0.5 to 0.5)) [4]: 0.48

AGAGATAA (double strand) [8-mer AGAGATAA]
binding signal (PBM E-score (-0.5 to 0.5)) [3]: 0.492

CACGTCAG (double strand) [8-mer CACGTCAG]
binding signal (PBM E-score (-0.5 to 0.5)) [1]: 0.473

CCACGTGG (double strand) [8-mer CCACGTGG]
binding signal (PBM E-score (-0.5 to 0.5)) [8]: 0.499 | binding signal (PBM E-score (-0.5 to 0.5)) [1]: 0.48

CAGATAAG (double strand) [8-mer CAGATAAG]
binding signal (PBM E-score (-0.5 to 0.5)) [3]: 0.491

CACGTGGC (double strand) [8-mer CACGTGGC]
binding signal (PBM E-score (-0.5 to 0.5)) [8]: 0.499 | binding signal (PBM E-score (-0.5 to 0.5)) [1]: 0.464

AAGATAAG (double strand) [8-mer AAGATAAG]
binding signal (PBM E-score (-0.5 to 0.5)) [3]: 0.493

CGGTATAC (double strand) [8-mer CGGTATAC]
binding signal (PBM E-score (-0.5 to 0.5)) [5]: 0.495

ACGTGGCT (double strand) [8-mer ACGTGGCT]
binding signal (PBM E-score (-0.5 to 0.5)) [8]: 0.492 | binding signal (PBM E-score (-0.5 to 0.5)) [1]: 0.466

ACGTGGCC (double strand) [8-mer ACGTGGCC]
binding signal (PBM E-score (-0.5 to 0.5)) [1]: 0.471

CCACGTAG (double strand) [8-mer CCACGTAG]
binding signal (PBM E-score (-0.5 to 0.5)) [1]: 0.478

GGTATCAC (double strand) [8-mer GGTATCAC]
binding signal (PBM E-score (-0.5 to 0.5)) [4]: 0.476

AAGTATCA (double strand) [8-mer AAGTATCA]
binding signal (PBM E-score (-0.5 to 0.5)) [4]: 0.468

GTATACTA (double strand) [8-mer GTATACTA]
binding signal (PBM E-score (-0.5 to 0.5)) [5]: 0.499

GAGTATCA (double strand) [8-mer GAGTATCA]
binding signal (PBM E-score (-0.5 to 0.5)) [4]: 0.46

ACGTCAGA (double strand) [8-mer ACGTCAGA]
binding signal (PBM E-score (-0.5 to 0.5)) [1]: 0.476

AATGATAC (double strand) [8-mer AATGATAC]
binding signal (PBM E-score (-0.5 to 0.5)) [4]: 0.461 | binding signal (PBM E-score (-0.5 to 0.5)) [10]: 0.482

GAGTATAC (double strand) [8-mer GAGTATAC]
binding signal (PBM E-score (-0.5 to 0.5)) [5]: 0.499

ATCTTATC (double strand) [8-mer ATCTTATC]
binding signal (PBM E-score (-0.5 to 0.5)) [2]: 0.495 | binding signal (PBM E-score (-0.5 to 0.5)) [3]: 0.497

CGATAAGA (double strand) [8-mer CGATAAGA]
binding signal (PBM E-score (-0.5 to 0.5)) [2]: 0.487

ACTAATCC (double strand) [8-mer ACTAATCC]
binding signal (PBM E-score (-0.5 to 0.5)) [6]: 0.49 | binding signal (PBM E-score (-0.5 to 0.5)) [7]: 0.497

CCGATATC (double strand) [8-mer CCGATATC]
binding signal (PBM E-score (-0.5 to 0.5)) [2]: 0.487

GCTAATTA (double strand) [8-mer GCTAATTA]
binding signal (PBM E-score (-0.5 to 0.5)) [11]: 0.496

CGATATCG (double strand) [8-mer CGATATCG]
binding signal (PBM E-score (-0.5 to 0.5)) [2]: 0.496

AGTAATTA (double strand) [8-mer AGTAATTA]
binding signal (PBM E-score (-0.5 to 0.5)) [11]: 0.494

CTTATCTA (double strand) [8-mer CTTATCTA]
binding signal (PBM E-score (-0.5 to 0.5)) [3]: 0.493

GCCACGTA (double strand) [8-mer GCCACGTA]
binding signal (PBM E-score (-0.5 to 0.5)) [8]: 0.497 | binding signal (PBM E-score (-0.5 to 0.5)) [1]: 0.48

AAAGTATA (double strand) [8-mer AAAGTATA]
binding signal (PBM E-score (-0.5 to 0.5)) [5]: 0.496

ATCTAATC (double strand) [8-mer ATCTAATC]
binding signal (PBM E-score (-0.5 to 0.5)) [2]: 0.487

GCTTATCA (double strand) [8-mer GCTTATCA]
binding signal (PBM E-score (-0.5 to 0.5)) [12]: 0.493

GATATCCC (double strand) [8-mer GATATCCC]
binding signal (PBM E-score (-0.5 to 0.5)) [4]: 0.466

AGGTATCA (double strand) [8-mer AGGTATCA]
binding signal (PBM E-score (-0.5 to 0.5)) [4]: 0.474

AGATAACA (double strand) [8-mer AGATAACA]
binding signal (PBM E-score (-0.5 to 0.5)) [3]: 0.488

AGATAAGC (double strand) [8-mer AGATAAGC]
binding signal (PBM E-score (-0.5 to 0.5)) [3]: 0.493

AGGTATAC (double strand) [8-mer AGGTATAC]
binding signal (PBM E-score (-0.5 to 0.5)) [5]: 0.496

GGAGATAA (double strand) [8-mer GGAGATAA]
binding signal (PBM E-score (-0.5 to 0.5)) [3]: 0.49

CGATAACG (double strand) [8-mer CGATAACG]
binding signal (PBM E-score (-0.5 to 0.5)) [2]: 0.483

ATTGATAC (double strand) [8-mer ATTGATAC]
binding signal (PBM E-score (-0.5 to 0.5)) [4]: 0.467 | binding signal (PBM E-score (-0.5 to 0.5)) [10]: 0.487

GAGATAAC (double strand) [8-mer GAGATAAC]
binding signal (PBM E-score (-0.5 to 0.5)) [3]: 0.487

AGATAACG (double strand) [8-mer AGATAACG]
binding signal (PBM E-score (-0.5 to 0.5)) [3]: 0.49

AGTATACG (double strand) [8-mer AGTATACG]
binding signal (PBM E-score (-0.5 to 0.5)) [5]: 0.496

TCTTATCA (double strand) [8-mer TCTTATCA]
binding signal (PBM E-score (-0.5 to 0.5)) [12]: 0.495 | binding signal (PBM E-score (-0.5 to 0.5)) [3]: 0.491

GGTGATAA (double strand) [8-mer GGTGATAA]
binding signal (PBM E-score (-0.5 to 0.5)) [12]: 0.494

GTATACCA (double strand) [8-mer GTATACCA]
binding signal (PBM E-score (-0.5 to 0.5)) [5]: 0.495

ACGTGGCA (double strand) [8-mer ACGTGGCA]
binding signal (PBM E-score (-0.5 to 0.5)) [8]: 0.499 | binding signal (PBM E-score (-0.5 to 0.5)) [1]: 0.477

GATATCGC (double strand) [8-mer GATATCGC]
binding signal (PBM E-score (-0.5 to 0.5)) [2]: 0.487

AGGGTATC (double strand) [8-mer AGGGTATC]
binding signal (PBM E-score (-0.5 to 0.5)) [4]: 0.466

CAGTATAC (double strand) [8-mer CAGTATAC]
binding signal (PBM E-score (-0.5 to 0.5)) [5]: 0.498

ATGATACC (double strand) [8-mer ATGATACC]
binding signal (PBM E-score (-0.5 to 0.5)) [4]: 0.481

ATATCCCC (double strand) [8-mer ATATCCCC]
binding signal (PBM E-score (-0.5 to 0.5)) [4]: 0.474

CTTATCTC (double strand) [8-mer CTTATCTC]
binding signal (PBM E-score (-0.5 to 0.5)) [3]: 0.496
